{"source": "patent US20050153395A1", "about": "“Unique integrin binding site in connective tissue growth factor (CTGF)” (CHILDREN'S HOSPITAL INC., priority 2003, published 2005)", "key": {"[1]": {"molecular_target": "integrin αvβ3 on activated rat hepatic stellate cells (HSC) (rat) (UniProt Q8R2H2)", "sequence (Q8R2H2 26-787)": "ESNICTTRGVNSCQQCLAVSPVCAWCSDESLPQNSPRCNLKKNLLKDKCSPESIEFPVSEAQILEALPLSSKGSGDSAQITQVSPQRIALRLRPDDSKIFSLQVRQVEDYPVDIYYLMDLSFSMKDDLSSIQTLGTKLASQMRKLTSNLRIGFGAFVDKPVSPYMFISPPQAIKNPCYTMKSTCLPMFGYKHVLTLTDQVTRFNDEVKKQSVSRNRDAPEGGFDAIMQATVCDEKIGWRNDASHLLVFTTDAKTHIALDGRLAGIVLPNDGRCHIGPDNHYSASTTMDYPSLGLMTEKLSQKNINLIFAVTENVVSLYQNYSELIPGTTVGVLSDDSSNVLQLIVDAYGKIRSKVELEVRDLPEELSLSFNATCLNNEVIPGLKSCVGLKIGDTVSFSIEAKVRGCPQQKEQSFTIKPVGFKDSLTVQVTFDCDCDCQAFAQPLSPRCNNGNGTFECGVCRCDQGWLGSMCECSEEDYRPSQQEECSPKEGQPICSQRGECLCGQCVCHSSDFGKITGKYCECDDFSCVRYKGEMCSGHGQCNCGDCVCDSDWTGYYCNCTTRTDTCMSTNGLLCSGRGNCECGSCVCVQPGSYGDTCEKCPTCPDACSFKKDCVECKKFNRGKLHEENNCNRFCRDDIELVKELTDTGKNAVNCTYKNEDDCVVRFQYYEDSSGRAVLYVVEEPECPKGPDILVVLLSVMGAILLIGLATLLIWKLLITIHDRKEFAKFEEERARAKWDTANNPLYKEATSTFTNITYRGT", "assay": "cell-based or functional assay"}, "[2]": {"molecular_target": "integrin αvβ3 (purified, human) (human) (UniProt P06756)", "sequence (P06756 31-1048, form in doubt, chain 1 of 2)": "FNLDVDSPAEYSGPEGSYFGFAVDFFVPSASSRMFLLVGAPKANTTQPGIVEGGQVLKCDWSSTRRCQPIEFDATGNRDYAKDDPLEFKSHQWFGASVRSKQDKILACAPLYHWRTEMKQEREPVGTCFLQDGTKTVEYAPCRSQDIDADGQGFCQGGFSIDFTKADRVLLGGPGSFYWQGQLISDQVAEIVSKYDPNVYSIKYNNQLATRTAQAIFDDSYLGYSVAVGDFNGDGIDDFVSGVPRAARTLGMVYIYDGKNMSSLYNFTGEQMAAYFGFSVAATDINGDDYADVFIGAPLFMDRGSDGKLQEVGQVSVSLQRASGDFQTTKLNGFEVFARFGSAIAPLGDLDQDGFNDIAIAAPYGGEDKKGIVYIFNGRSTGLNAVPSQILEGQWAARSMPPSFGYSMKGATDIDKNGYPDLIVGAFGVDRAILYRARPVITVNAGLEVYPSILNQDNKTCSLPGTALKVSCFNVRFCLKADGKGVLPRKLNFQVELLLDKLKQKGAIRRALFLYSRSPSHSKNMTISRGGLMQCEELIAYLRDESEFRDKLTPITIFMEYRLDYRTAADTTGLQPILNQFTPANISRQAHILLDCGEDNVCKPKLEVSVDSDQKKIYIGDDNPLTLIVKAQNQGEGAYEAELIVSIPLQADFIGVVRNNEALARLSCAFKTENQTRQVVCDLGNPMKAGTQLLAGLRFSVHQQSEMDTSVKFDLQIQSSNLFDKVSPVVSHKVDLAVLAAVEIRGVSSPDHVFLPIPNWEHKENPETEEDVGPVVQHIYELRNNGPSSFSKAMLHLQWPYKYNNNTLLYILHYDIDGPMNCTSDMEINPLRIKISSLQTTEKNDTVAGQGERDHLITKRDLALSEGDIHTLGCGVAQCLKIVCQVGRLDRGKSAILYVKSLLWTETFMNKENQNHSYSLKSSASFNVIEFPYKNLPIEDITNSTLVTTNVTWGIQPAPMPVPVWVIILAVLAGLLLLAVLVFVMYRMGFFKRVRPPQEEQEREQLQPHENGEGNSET", "sequence (P05106 27-788, form in doubt, chain 2 of 2, further chain)": "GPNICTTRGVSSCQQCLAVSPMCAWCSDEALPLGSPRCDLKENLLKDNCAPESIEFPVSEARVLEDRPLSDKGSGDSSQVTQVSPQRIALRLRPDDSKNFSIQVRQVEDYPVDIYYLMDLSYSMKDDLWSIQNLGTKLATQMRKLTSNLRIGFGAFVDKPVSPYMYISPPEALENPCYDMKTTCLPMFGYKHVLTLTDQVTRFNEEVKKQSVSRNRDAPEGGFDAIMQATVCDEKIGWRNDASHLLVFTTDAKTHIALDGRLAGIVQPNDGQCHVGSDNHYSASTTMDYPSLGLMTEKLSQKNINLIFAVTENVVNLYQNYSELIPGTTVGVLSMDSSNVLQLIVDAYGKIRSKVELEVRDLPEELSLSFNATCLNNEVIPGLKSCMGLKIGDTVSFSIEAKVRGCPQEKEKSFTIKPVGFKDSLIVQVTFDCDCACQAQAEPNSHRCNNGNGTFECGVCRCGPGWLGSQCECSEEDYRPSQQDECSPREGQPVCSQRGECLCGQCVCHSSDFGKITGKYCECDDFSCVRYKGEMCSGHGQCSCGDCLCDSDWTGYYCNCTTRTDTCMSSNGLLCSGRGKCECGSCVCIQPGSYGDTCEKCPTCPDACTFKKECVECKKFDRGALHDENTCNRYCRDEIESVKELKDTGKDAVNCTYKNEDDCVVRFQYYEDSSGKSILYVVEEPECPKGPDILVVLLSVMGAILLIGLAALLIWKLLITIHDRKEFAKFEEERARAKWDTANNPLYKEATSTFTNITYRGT", "assay": "solid phase ELISA, coated ligand, purified αvβ3 (1 µg/ml)"}}}
{"substance": "vitronectin (ligand)", "values": [{"measurement": "decrease in HSC binding to vitronectin by RGD peptides (GRGDsp, Echistatin)", "setting": "[1]", "value": 100, "unit": "%"}, {"measurement": "coating concentration at saturation of binding", "setting": "[2]", "value": 4, "unit": "µg/mL"}]}
